Data published in PMC2756588.

Experiments:
Assay in all cases: SPOT array
Lsb3, P43603 = molecular target: T1, Lsb3, P43603; details: median of control spots 406
T1 sequence (P43603 385-451, looked up): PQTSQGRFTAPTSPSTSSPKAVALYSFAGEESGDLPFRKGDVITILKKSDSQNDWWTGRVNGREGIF

Cdc25, P04821 = molecular target: T2, Cdc25, P04821; details: median of control spots 969
T2 sequence (P04821 50-136, looked up): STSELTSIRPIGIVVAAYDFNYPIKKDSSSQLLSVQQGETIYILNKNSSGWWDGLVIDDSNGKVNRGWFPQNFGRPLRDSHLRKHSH

Sla1-2, P32790 = molecular target: T3, Sla1-2, P32790; details: median of control spots 712
T3 sequence (P32790 60-140, looked up): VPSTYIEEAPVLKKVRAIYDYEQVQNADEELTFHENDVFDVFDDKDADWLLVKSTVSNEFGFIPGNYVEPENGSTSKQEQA

Lsb4, P32793 = molecular target: T4, Lsb4, P32793; details: median of control spots 397
T4 sequence (P32793 402-468, looked up): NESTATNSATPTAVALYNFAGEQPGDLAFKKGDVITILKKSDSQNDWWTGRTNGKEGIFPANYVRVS

Hse1, P38753 = molecular target: T5, Hse1, P38753; details: median of control spots 1727
T5 sequence (P38753 208-285, looked up): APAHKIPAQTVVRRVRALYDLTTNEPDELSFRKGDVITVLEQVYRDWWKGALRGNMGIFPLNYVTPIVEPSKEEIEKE

Rvs167, P39743 = details: median of control spots 2707
Sequence of Rvs167, P39743 (P39743 419-482): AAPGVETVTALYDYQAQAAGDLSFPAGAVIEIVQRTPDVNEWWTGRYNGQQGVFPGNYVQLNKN

Pex13, P80667 = molecular target: T6, Pex13, P80667; details: median of control spots 1341
T6 sequence (P80667 295-386, looked up): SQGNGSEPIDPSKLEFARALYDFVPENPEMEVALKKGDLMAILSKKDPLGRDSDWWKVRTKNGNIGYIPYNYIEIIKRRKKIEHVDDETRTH

GST = details: median of control spots 978
Fus1, P11710 = molecular target: T7, Fus1, P11710; details: median of control spots 1200
T7 sequence (P11710 432-512, looked up): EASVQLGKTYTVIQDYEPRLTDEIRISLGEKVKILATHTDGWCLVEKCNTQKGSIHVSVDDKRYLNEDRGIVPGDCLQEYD

Bud14, P27637 = molecular target: T8, Bud14, P27637; details: median of control spots 956
T8 sequence (P27637 247-328, looked up): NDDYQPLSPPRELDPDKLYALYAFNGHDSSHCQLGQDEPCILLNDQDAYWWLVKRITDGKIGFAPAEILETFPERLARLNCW

Boi1, P38041 = molecular target: T9, Boi1, P38041; details: median of control spots 1162
T9 sequence (P38041 1-86, looked up): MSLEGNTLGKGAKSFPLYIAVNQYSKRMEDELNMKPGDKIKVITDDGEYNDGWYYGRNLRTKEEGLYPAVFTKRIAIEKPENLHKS

Myo5, Q04439 = molecular target: T10, Myo5, Q04439; details: median of control spots 471
T10 sequence (Q04439 1072-1160, looked up): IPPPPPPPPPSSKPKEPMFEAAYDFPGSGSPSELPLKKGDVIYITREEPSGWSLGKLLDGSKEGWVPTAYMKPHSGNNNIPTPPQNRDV

Bbc1, P47068 = molecular target: T11, Bbc1, P47068; details: median of control spots 796
T11 sequence (P47068 1-78, looked up): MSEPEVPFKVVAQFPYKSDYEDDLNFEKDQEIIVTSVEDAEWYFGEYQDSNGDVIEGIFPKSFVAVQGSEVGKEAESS

Cyk3, Q07533 = molecular target: T12, Cyk3, Q07533; details: median of control spots 1451
T12 sequence (Q07533 1-83, looked up): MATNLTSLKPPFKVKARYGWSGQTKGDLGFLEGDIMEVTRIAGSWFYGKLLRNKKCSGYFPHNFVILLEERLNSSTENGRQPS

Bem1-1, P29366 = details: median of control spots 4282
Sequence of Bem1-1, P29366 (P29366 55-141): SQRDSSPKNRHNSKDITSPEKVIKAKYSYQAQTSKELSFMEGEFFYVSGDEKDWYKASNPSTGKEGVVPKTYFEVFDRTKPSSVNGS

Abp1, P15891 = molecular target: T13, Abp1, P15891; details: median of control spots 935
T13 sequence (P15891 535-592, looked up): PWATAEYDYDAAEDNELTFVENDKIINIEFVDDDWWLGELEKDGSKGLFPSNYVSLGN

Myo3, P36006 = details: median of control spots 468
Bem1-2, P29366 = details: median of control spots 4347
Sequence of Bem1-2, P29366 (P29366 139-227): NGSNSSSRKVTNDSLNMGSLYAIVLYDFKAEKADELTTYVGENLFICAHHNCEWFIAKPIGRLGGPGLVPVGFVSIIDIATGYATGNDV

Pin3, Q06449 = molecular target: T14, Pin3, Q06449; details: median of control spots 2171
T14 sequence (Q06449 53-122, looked up): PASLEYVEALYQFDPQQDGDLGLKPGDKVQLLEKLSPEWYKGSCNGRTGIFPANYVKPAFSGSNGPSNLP

Bzz1-2, P38822 = molecular target: T15, Bzz1-2, P38822; details: median of control spots 4538
T15 sequence (P38822 568-633, looked up): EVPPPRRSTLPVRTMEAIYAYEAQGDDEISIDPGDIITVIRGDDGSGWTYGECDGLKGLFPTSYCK

Hof1, Q05080 = molecular target: T16, Hof1, Q05080; details: median of control spots 4086
T16 sequence (Q05080 590-669, looked up): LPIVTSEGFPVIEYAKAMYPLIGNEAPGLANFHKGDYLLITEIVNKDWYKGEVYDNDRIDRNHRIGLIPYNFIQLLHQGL

Sla1-3, P32790 = molecular target: T17, Sla1-3, P32790; details: median of control spots 5475
T17 sequence (P32790 344-424, looked up): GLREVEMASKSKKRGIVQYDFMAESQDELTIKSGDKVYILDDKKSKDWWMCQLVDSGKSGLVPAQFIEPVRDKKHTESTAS

Nbp2, Q12163 = molecular target: T18, Nbp2, Q12163; details: median of control spots 357
T18 sequence (Q12163 103-180, looked up): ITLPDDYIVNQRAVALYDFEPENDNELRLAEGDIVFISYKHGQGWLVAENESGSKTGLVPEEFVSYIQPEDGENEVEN

Lsb1, P53281 = molecular target: T19, Lsb1, P53281; details: median of control spots 388
T19 sequence (P53281 45-122, looked up): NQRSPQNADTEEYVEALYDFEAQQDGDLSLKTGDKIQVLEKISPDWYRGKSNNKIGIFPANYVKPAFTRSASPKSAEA

Boi2, P39969 = molecular target: T20, Boi2, P39969; details: median of control spots 1161
T20 sequence (P39969 32-116, looked up): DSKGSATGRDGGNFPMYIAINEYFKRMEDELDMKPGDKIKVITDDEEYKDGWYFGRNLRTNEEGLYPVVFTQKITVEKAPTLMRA

Sho1, P40073 = details: median of control spots 1148
Sequence of Sho1, P40073 (P40073 287-367): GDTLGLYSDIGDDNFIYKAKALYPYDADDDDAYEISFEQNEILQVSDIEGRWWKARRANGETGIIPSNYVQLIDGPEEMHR

Bzz1-1, P38822 = molecular target: T21, Bzz1-1, P38822; details: median of control spots 4446
T21 sequence (P38822 478-572, looked up): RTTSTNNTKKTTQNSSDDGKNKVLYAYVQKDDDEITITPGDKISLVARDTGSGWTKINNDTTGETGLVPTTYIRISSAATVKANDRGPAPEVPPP

Binder	SPOT intensity (Lsb3, P43603)	SPOT intensity (Cdc25, P04821)	SPOT intensity (Sla1-2, P32790)	SPOT intensity (Lsb4, P32793)	SPOT intensity (Hse1, P38753)	SPOT intensity (Rvs167, P39743)	SPOT intensity (Pex13, P80667)	SPOT intensity (GST)	SPOT intensity (Fus1, P11710)	SPOT intensity (Bud14, P27637)	SPOT intensity (Boi1, P38041)	SPOT intensity (Myo5, Q04439)	SPOT intensity (Bbc1, P47068)	SPOT intensity (Cyk3, Q07533)	SPOT intensity (Bem1-1, P29366)	SPOT intensity (Abp1, P15891)	SPOT intensity (Myo3, P36006)	SPOT intensity (Bem1-2, P29366)	SPOT intensity (Pin3, Q06449)	SPOT intensity (Bzz1-2, P38822)	other results
QPWTDQFEKLEKEVS	0	4	0	0	0	0	0	0	0	2	0	0	0	0	0	0	0	0	0	1	SPOT intensity (Hof1, Q05080): 1; SPOT intensity (Sla1-3, P32790): 0; SPOT intensity (Nbp2, Q12163): 0; SPOT intensity (Lsb1, P53281): 0; SPOT intensity (Boi2, P39969): 0; SPOT intensity (Sho1, P40073): 0; SPOT intensity (Bzz1-1, P38822): 5
TKHKAPPPPPPTAET	1	0	1	0	0	0	0	0	0	0	0	1	0	0	3	0	0	0	0	190	SPOT intensity (Hof1, Q05080): 1; SPOT intensity (Sla1-3, P32790): 0; SPOT intensity (Nbp2, Q12163): 0; SPOT intensity (Lsb1, P53281): 0; SPOT intensity (Boi2, P39969): 1; SPOT intensity (Sho1, P40073): 0; SPOT intensity (Bzz1-1, P38822): 762
LYEAMPPTLPHRDWK	0	0	1	1	2	151	59	0	0	0	0	1	0	0	0	0	0	1	19	2	SPOT intensity (Hof1, Q05080): 3; SPOT intensity (Sla1-3, P32790): 0; SPOT intensity (Nbp2, Q12163): 0; SPOT intensity (Lsb1, P53281): 0; SPOT intensity (Boi2, P39969): 2; SPOT intensity (Sho1, P40073): 0; SPOT intensity (Bzz1-1, P38822): 0
